According to patent US20240132599A1:

Experiments:
[1] = biological target: Vδ1 TCR on human Vδ1-positive γδ T cells (human), A0A1B0
[2] = biological target: Vδ1 TCR on human Vδ1-positive γδ T cells (human), A0A1B0; remark: listed apart in the source

Sequence of Vδ1 TCR on human Vδ1-positive γδ T cells (human), A0A1B0 (A0A1B0 entry or part of it mutant limits assumed): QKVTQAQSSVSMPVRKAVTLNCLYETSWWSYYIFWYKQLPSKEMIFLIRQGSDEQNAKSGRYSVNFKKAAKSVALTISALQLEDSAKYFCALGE

Vδ1 TCR down-regulation (A375 co-culture): EC50 (read off the curve) [1]: 10 pM
Vδ1 TCR down-regulation (A375 co-culture): % change (at saturation) [2]: 46%
Vδ1 TCR down-regulation (A375 co-culture): EC95 [2]: 101 pM
Vδ1 TCR down-regulation (A431 co-culture): % change (at saturation) [2]: 81.1%
Vδ1 TCR down-regulation (A431 co-culture): EC95 [2]: 7.9 pM
B1: ADT1-4-2/ADT3-1 (bispecific antibody)
heavy: EVQLQQSGPGLVKPSQTLSLTCAISGDSVSSKSAAWNWIRQSPSRGLEWLGRTYYRSKWSTDYAASVKSRITINPDTSKNQLSLQLNSVTPEDTAVYYCARTWVGYVDRWGQGTLVTVSSASTKGPSVFPLAPSSKSTSGGTAALGCLVKDYFPEPVTVSWNSGALTSGVHTFPAVLQSSGLYSLSSVVTVPSSSLGTQTYICNVNHKPSNTKVDKKVEPKSCDKTHTCPPCPAPELAGAPSVFLFPPKPKDTLMISRTPEVTCVVVDVSHEDPEVKFNWYVDGVEVHNAKTKPREEQYNSTYRVVSVLTVLHQDWLNGKEYKCKVSNKALPAPIEKTISKAKGQPREPQVYTLPPSRDETDDGPVSLTCLVKGFYPSDIAVEWESTYGPENNYKTTPPVLDSDGSFFLYSKLTVSYWRWYKGNVFSCSVMHEALHNHYTQKSLSLSPG
light: DIQMTQSPPALSASVGDRVTITCRASQDINDWLAWYQHKPGKAPKLLIYDASSLESGVPLRFSGSGSGTEFTLTISSLQPDDFATYYCQQKYSAPQVTFGQGTRLEIKRTVAAPSVFIFPPSDEQLKSGTASVVCLLNNFYPREAKVQWKVDNALQSGNSQESVTEQDSKDSTYSLSSTLTLSKADYEKHKVYACEVTHQGLSSPVTKSFNRGEC
